Assay: yeast display, Sf9 membrane polyspecificity reagent, FACS + sequencing; frameworks hold sequencing errors
In short: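 A synthetic nanobody library was expressed on Saccharomyces cerevisiae BJ5465 by galactose induction for 36–48 hours. The library was stained for 1 hour at 4 °C with 10% biotinylated, detergent-solubilized Sf9 membrane reagent and enriched with streptavidin microbeads before FACS. Low and high (top ~1%) gates were set on anti-HA fluorescence for expression and streptavidin fluorescence for reagent binding, and each polyreactivity label reflects the gate of origin.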

| Sequence | polyreactivity (PSR sort gate) |
| --- | --- |
| QVQLVESGGGLVQAGGSLRLSCAASGSIFAYYTMGWYRQAPGKERELVARISSRGGRTYYADSVKGRFTISRDNAKNTVYLQMNSLKPEDTAVYYCNAGYSYRKYDYWGQGTQVTVSS | high polyreactivity |
| QVQLVESGGGLVQAGGSLRLSCAASGSIFAYYTMGWYRQAPGNERELVATISSGDITNYADSVKGRFTISRDNAKNTVYLQMNSLKPEDTAVYYCAAAELTSYYRTFIHQDYDYWGQGTQVTVSS | low polyreactivity |
| QVQLVESGGGLVQAGGSLRLSCAASGSIFAYYVMGWYRHAHGKERELVAAISARGGRTYYADSVKGRFTISRDNAKNTVYLQMNSLKQEDTAVYYCNALDQRYSQAVEYDYWGQGTQVTVSS | high polyreactivity |
| QVQLVESGGGLVQAGGSLRLSCAASGSIFCRYDMGWLDRRLGKKGSSLPLLLVLVTTRTTQTPVKGRFTISRDNAKNTVYLQIICLKPEDTAVYNCAADLRASGLKYEYWGQGTQVTVSS | low polyreactivity |
| QVQLVESGGGLVQAGGSLRLSCAASGSIFCYNTMGWYRQAPGKERELVAAITFSGGSTYYADSVKGRFTISRDNAKNTVYLKMNSLKPEDTAVYYCAAVFYSAVGYYYWGQGTQVTVSS | low polyreactivity |
| QVQLVESGGGLVQAGGSLRLSCAASGSIFDAYALGWYRQAPGKERELVADITFSAGRTYYADSVKGRFTITRDNAKNTVYLQMNSLKPEDTAVYYCAADSIVGDGYWSYYWGQGTQVTVSS | low polyreactivity |
| QVQLVESGGGLVQAGGSLRLSCAASGSIFDDNTMGWYRQAPGKERELVAAISSRGGSTYYADSVKGRFTISRDNAKNTVYLQMNSLKPEDTAVYYCATGPRWTWEGSRWKLEFDSWGQGTQVTVSS | low polyreactivity |
| QVQLVESGGGLVQAGGSLRLSCAASGSIFDDYAMGCYIHAPGKERELVAAITWNGGSTYADSVKGRFTISRDNAKNTVYLQMNSLKPEDTAVYYCAADYFVYWYYGYGYWGQGTQVTVSS | low polyreactivity |
| QVQLVESGGGLVQAGGSLRLSCAASGSIFDDYAMGWYRQAPGKERELVAAISDSGGSTSYADSVKGRFTISRDNAKNTVYFQMNSLKPEDTAVYYCNADRDDDYDYWGQGTQVTVSS | low polyreactivity |
| QVQLVESGGGLVQAGGSLRLSCAASGSIFDDYGMGWYRQAPGKEWEFVADITSRGTRTYYADSVKGRFTISRDNAKNTVYLQMNCLKPEDTAGYYFNTLVGVDFWLVDYWGQGTQVTLSS | low polyreactivity |
| QVQLVESGGGLVQAGGSLRLSCAASGSIFDFYAMGCYRQAPGKERELVAAISGSGGSTYYADSVKGRFTMSRDNAKNTVYLQMNSLKPEDTAVYYCSYYYWGQRTQVTVSS | low polyreactivity |
| QVQLVESGGGLVQAGGSLRLSCAASGSIFDFYAMGWYRQAAGKERELVASITGRGGSTYYADSVKGRFSISRDKAKNTVYFQMNSLKPEDTAVYYCAAATFGRGGFEYWGQGTKVTVSS | high polyreactivity |
| QVQLVESGGGLVQAGGSLRLSCAASGSIFDFYAMGWYRQAPGKEREFVAAITQSGASTYADSVKGRFTISRDNAKNTVYLQMNSLKPEDTAVYYCNADSGGRGAPTSTYDYWGQGSQVTVSS | low polyreactivity |
| QVQLVESGGGLVQAGGSLRLSCAASGSIFDGNAMGWYSQAPGKERELVAAITTDYRTYYADSVKGRFTISRDNAKNTFYLQMNSLKPEDTAVYYCNVVIYYFNSRTVYYDYDYWGQGTQVTVSS | high polyreactivity |
| QVQLVESGGGLVQAGGSLRLSCAASGSIFDGYAMGWYRQAPGKERELVASISSGGSTNYADSVKGRFTISRDNAKNTVYLQMNSLKPEDTAVYYCAAEWVWYKWEFEYWGQGTQVTVSS | high polyreactivity |
| QVQLVESGGGLVQAGGSLRLSCAASGSIFDGYAMGWYSQAPGKEREFVASIRFSTGRTYYADSVKGRFTISRDNAKNTVYFQMNSLKPEDTAVYYCNAPQGFVWRYSSWGPYDYWGQGTQVTVSS | high polyreactivity |

Source: the nanobody polyreactivity screen of Harvey et al. (2022)
